# In patent US20250163127A1:
# Where “and” joins values, the source holds several entries; their conditions need not be identical. Equal entries are not always repeated.
# Biological target: T1, TIGIT (human) (UniProt Q495A1)
# T1 sequence: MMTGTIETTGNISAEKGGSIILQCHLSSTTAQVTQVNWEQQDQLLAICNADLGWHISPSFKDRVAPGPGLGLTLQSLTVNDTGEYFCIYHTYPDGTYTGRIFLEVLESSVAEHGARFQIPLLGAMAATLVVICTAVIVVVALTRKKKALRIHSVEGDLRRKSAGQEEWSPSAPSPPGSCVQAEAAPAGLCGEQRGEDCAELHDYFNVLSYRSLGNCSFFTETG
# Experiment: flow cytometry, transfected HEK293 cells
# wild-type CD155 IgV-Fc (Fc fusion), sequence (chain): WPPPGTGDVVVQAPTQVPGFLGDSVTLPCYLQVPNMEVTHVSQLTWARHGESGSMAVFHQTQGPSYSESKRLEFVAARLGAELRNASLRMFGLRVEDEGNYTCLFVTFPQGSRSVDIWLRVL
MFI at 100 nM,fold increase to WT ECD [fold],Substance
4320,–,"variant CD155 IgV-Fc, S52L, L104E (Fc fusion)"
2290,–,"variant CD155 IgV-Fc, S52Q (Fc fusion)"
2860,–,"variant CD155 IgV-Fc, T45Q, S52L, V57L, L104E (Fc fusion)"
4810,–,"variant CD155 IgV-Fc, T45Q, S52Q (Fc fusion)"
4090,–,"variant CD155 IgV-Fc, T45Q, S52R, G111R (Fc fusion)"
1960 and 2180 and 4690,0,wild-type CD155 IgV-Fc (Fc fusion)

# Biological target: T2, CD226 (human) (UniProt Q15762)
# T2 sequence: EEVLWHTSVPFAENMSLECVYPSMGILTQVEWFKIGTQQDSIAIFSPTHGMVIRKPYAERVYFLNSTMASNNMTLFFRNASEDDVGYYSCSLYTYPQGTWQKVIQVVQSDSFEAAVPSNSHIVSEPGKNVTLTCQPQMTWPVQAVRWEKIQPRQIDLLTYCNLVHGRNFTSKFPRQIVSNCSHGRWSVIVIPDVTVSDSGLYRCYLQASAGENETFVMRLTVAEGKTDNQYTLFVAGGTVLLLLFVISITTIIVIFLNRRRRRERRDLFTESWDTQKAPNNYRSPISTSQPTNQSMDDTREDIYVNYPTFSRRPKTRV
# Experiment: flow cytometry, transfected HEK293 cells
row,MFI at 100 nM,Substance
1,2040,"variant CD155 IgV-Fc, Q62F, L104E, G111R (Fc fusion)"
2,1900,"variant CD155 IgV-Fc, S42A, L104Q, G111R (Fc fusion)"
3,2100,"variant CD155 IgV-Fc, S42C (Fc fusion)"
4,2190,"variant CD155 IgV-Fc, S42L (Fc fusion)"
5,1910,"variant CD155 IgV-Fc, S42N (Fc fusion)"
6,1740,"variant CD155 IgV-Fc, S42N, S52E, V57L, L104E (Fc fusion)"
7,2270,"variant CD155 IgV-Fc, S42V, S52E (Fc fusion)"
8,2300,"variant CD155 IgV-Fc, S42W, S52R, Q62Y, L104Q (Fc fusion)"
9,2210,"variant CD155 IgV-Fc, S52L, L104E (Fc fusion)"
10,2000,"variant CD155 IgV-Fc, S52M, Q62Y (Fc fusion)"
11,2020,"variant CD155 IgV-Fc, S52Q (Fc fusion)"
12,2040,"variant CD155 IgV-Fc, S52W (Fc fusion)"
13,5940,"variant CD155 IgV-Fc, T45Q, S52L, V57L, L104E (Fc fusion)"
14,5790,"variant CD155 IgV-Fc, T45Q, S52Q (Fc fusion)"
15,2080,"variant CD155 IgV-Fc, T45Q, S52R, G111R (Fc fusion)"
16,2320 and 2370 and 4690,wild-type CD155 IgV-Fc (Fc fusion)

# Biological target: T3, CD96 (human) (UniProt P40200)
# T3 sequence: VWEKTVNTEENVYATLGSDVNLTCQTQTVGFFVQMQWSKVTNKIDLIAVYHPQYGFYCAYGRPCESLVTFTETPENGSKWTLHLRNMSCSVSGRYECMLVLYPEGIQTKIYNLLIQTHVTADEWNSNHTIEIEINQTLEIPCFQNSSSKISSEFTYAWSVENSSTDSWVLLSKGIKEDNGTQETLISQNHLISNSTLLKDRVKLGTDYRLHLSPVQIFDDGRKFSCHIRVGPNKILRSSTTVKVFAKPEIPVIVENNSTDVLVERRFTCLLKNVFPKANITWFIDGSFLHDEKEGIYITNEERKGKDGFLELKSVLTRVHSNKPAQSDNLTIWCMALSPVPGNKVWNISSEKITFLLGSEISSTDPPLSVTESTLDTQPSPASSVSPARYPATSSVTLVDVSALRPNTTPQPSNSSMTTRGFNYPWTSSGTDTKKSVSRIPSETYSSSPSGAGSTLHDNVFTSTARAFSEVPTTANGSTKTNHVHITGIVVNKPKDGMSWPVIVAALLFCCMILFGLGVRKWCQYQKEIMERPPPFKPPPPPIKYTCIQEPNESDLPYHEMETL
# Experiment: flow cytometry, transfected HEK293 cells
MFI at 100 nM,fold increase to WT ECD [fold],Substance
1520,–,"variant CD155 IgV-Fc, Q62F, L104E, G111R (Fc fusion)"
1700,–,"variant CD155 IgV-Fc, S42A, L104Q, G111R (Fc fusion)"
1590,–,"variant CD155 IgV-Fc, S42C (Fc fusion)"
1620,–,"variant CD155 IgV-Fc, S42L (Fc fusion)"
1690,–,"variant CD155 IgV-Fc, S42N (Fc fusion)"
1540,–,"variant CD155 IgV-Fc, S42N, S52E, V57L, L104E (Fc fusion)"
2530,–,"variant CD155 IgV-Fc, S42V, S52E (Fc fusion)"
1760,–,"variant CD155 IgV-Fc, S42W, S52R, Q62Y, L104Q (Fc fusion)"
1830,0.02,"variant CD155 IgV-Fc, S52L, L104E (Fc fusion)"
1650,–,"variant CD155 IgV-Fc, S52M, Q62Y (Fc fusion)"
1820,0.02,"variant CD155 IgV-Fc, S52Q (Fc fusion)"
1710,–,"variant CD155 IgV-Fc, S52W (Fc fusion)"
1530,–,"variant CD155 IgV-Fc, T45Q, S52L, V57L, L104E (Fc fusion)"
2450,–,"variant CD155 IgV-Fc, T45Q, S52Q (Fc fusion)"
2340,0.02,"variant CD155 IgV-Fc, T45Q, S52R, G111R (Fc fusion)"
1890 and 1680 and 3270,0.02,wild-type CD155 IgV-Fc (Fc fusion)

# Biological target: CD112R (human) (UniProt Q6DKI7)
# Sequence (Q6DKI7 whole entry): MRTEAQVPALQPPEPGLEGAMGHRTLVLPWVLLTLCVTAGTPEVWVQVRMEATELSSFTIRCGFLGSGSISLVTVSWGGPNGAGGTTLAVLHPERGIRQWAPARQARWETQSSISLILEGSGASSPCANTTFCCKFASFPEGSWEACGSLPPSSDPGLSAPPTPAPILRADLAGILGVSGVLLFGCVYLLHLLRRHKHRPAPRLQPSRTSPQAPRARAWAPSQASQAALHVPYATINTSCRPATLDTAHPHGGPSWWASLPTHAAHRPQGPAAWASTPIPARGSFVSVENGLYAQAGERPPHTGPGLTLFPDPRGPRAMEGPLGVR
# Experiment: flow cytometry, transfected HEK293 cells
MFI at 100 nM,fold increase to WT ECD,Substance
1700,–,"variant CD155 IgV-Fc, Q62F, L104E, G111R (Fc fusion)"
1820,–,"variant CD155 IgV-Fc, S42A, L104Q, G111R (Fc fusion)"
1680,–,"variant CD155 IgV-Fc, S42C (Fc fusion)"
1740,–,"variant CD155 IgV-Fc, S42L (Fc fusion)"
1700,–,"variant CD155 IgV-Fc, S42N (Fc fusion)"
1690,–,"variant CD155 IgV-Fc, S42N, S52E, V57L, L104E (Fc fusion)"
1810,–,"variant CD155 IgV-Fc, S42V, S52E (Fc fusion)"
1820,–,"variant CD155 IgV-Fc, S42W, S52R, Q62Y, L104Q (Fc fusion)"
1760,0.99 fold,"variant CD155 IgV-Fc, S52L, L104E (Fc fusion)"
1770,–,"variant CD155 IgV-Fc, S52M, Q62Y (Fc fusion)"
1790,1 fold,"variant CD155 IgV-Fc, S52Q (Fc fusion)"
1610,–,"variant CD155 IgV-Fc, S52W (Fc fusion)"
1790,1.01 fold,"variant CD155 IgV-Fc, T45Q, S52R, G111R (Fc fusion)"
2170 and 1740 and 2940,1.22 fold and 0.98 fold and 1.65 fold,wild-type CD155 IgV-Fc (Fc fusion)

# Biological target: CTLA-4 (Homo sapiens (Human)) (UniProt P16410)
# Sequence (P16410 36-223): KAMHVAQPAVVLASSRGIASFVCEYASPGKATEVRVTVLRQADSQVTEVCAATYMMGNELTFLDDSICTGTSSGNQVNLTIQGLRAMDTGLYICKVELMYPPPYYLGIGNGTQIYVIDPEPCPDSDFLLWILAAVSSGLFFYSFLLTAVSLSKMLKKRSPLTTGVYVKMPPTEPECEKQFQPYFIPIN
# Experiment: flow cytometry, transfected cells
row,MFI [MFI],Substance
1,340000,ICOSL-Fc N52D/N57A/Q100A (Fc fusion)
2,333000,ICOSL-Fc N52D/Q100S (Fc fusion)
3,10200,ICOSL-Fc N52G/N57P/Q100D (Fc fusion)
4,233000,ICOSL-Fc N52R/N57F/Q100N (Fc fusion)
5,504000,ICOSL-Fc N52R/N57F/Q100P (Fc fusion)
6,464000,ICOSL-Fc N52R/N57F/Q100R (Fc fusion)
7,318000,ICOSL-Fc N52R/N57W (Fc fusion)

# Biological target: CD28 (human) (UniProt P10747)
# Experiment: flow cytometry, transfected cells
row,MFI [MFI],Substance
1,138000,ICOSL-Fc N52D/N57A/Q100A (Fc fusion)
2,95700,ICOSL-Fc N52D/Q100S (Fc fusion)
3,5720,ICOSL-Fc N52G/N57P/Q100D (Fc fusion)
4,21000,ICOSL-Fc N52P/N57P (Fc fusion)
5,161000,ICOSL-Fc N52R/N57F/Q100N (Fc fusion)
6,154000,ICOSL-Fc N52R/N57F/Q100P (Fc fusion)
7,185000,ICOSL-Fc N52R/N57F/Q100R (Fc fusion)
8,137000,ICOSL-Fc N52R/N57W (Fc fusion)

# Biological target: CD28 (human) (UniProt P10747)
# Experiment: flow cytometry, Jurkat cells (CD28)
row,MFI at 33.3 nM [MFI],Substance
1,1440,variant CD80 E35D/M47L/A71G/L85Q (Fc fusion)
2,10400,variant CD80 Q27H/E35D/D46V/M47L/A71G (Fc fusion)
3,527,variant CD80 V22D/E35D/M47L/L70M/L97Q (Fc fusion)
